This is an account of results in US20240116985A1 (published 2024).

One may read the IC50 as the concentration that inhibits the measured activity by half. The term EC50 denotes the concentration needed to bring the measured effect to its halfway point.

Starred links: 1 amine or outer side, 2 acyl side, 3 side chain; linkers in the order of their positions; H or OH if unused. Positions of bridges follow the written chain, without caps; N, C: chain ends. Non-standard residues stand in square brackets, D forms with d. Primed or numbered codes have the meaning given here. B5(10) = 2-amino-2-(pent-4-en-1-yl)hept-6-enoic acid, bis(4-pentenyl)glycine, stitching residue bearing both staples, C=CCCCC(CCCC=C)(N[*:1])C(=O)[*:2]; PyrS2″ = (S)-3-amino-1-((pent-4-en-1-yloxy)carbonyl)pyrrolidine-3-carboxylic acid (stapling residue), C=CCCCOC(=O)N1CC[C@@](N[*:1])(C(=O)[*:2])C1; B5(18) = 2,2-bis(4-pentenyl)glycine (2-amino-2-(pent-4-en-1-yl)hept-6-enoic acid), stitching residue, C=CCCCC(CCCC=C)(N[*:1])C(=O)[*:2]; B5(5) = 2,2-bis(4-pentenyl)glycine, 2-amino-2-(pent-4-en-1-yl)hept-6-enoic acid (stitching residue), C=CCCCC(CCCC=C)(N[*:1])C(=O)[*:2]; B5(21) = 2-amino-2-(pent-4-en-1-yl)hept-6-enoic acid, bis(4-pentenyl)glycine (stitching residue), C=CCCCC(CCCC=C)(N[*:1])C(=O)[*:2]; TfeGA = (S)-2-amino-3-((carboxymethyl)(2,2,2-trifluoroethyl)amino)propanoic acid, O=C([C@H](CN(CC(=O)[*:3])CC(F)(F)F)N[*:1])[*:2]; PyrS2 = (S)-3-amino-1-((pent-4-en-1-yloxy)carbonyl)pyrrolidine-3-carboxylic acid, C=CCCCOC(=O)N1CC[C@@](N[*:1])(C(=O)[*:2])C1; B5(3) = 2,2-bis(4-pentenyl)glycine (stitching residue), C=CCCCC(CCCC=C)(N[*:1])C(=O)[*:2]; Phe(2-Cl) = N[C@@H](Cc1ccccc1Cl)C(=O)O; Bta = N[C@@H](Cc1csc2ccccc12)C(=O)O; αAllylPro = C=CC[C@@]1(C(=O)O)CCCN1; tBuAla = CC(C)(C)C[C@H](N)C(=O)O; S8 = C=CCCCCCC[C@](C)(N)C(=O)O

To fix the notation:
T1: beta-catenin in DLD1 TCF/LEF luciferase reporter cells (UniProt P35222 1-781)
T1 sequence (looked up): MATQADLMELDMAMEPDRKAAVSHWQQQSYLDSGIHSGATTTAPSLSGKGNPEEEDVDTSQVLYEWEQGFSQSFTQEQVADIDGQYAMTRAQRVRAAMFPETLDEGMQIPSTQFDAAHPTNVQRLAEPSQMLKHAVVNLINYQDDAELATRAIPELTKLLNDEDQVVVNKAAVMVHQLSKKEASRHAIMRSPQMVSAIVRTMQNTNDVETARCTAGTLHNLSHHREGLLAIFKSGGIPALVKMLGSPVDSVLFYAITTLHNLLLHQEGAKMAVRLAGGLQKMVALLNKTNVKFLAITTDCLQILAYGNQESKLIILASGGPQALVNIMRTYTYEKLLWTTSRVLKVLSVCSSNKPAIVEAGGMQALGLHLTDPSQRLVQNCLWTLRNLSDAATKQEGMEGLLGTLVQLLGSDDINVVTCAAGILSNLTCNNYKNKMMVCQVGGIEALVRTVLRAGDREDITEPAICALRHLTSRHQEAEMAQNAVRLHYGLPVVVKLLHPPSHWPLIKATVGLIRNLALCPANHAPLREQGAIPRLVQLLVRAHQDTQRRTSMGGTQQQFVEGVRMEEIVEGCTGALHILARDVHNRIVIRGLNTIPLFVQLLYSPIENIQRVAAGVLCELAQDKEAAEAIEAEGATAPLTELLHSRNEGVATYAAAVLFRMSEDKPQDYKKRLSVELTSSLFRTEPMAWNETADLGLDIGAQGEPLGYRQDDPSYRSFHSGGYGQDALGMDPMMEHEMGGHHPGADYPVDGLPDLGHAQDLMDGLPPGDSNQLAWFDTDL

T2: B-cat-Halo (UniProt P35222 1-781)
T2 sequence (looked up): T1 sequence (looked up)

T3: B-cat-Halo (UniProt P35222 1-781)
T3 sequence (looked up): T1 sequence (looked up)

T4: full-length beta-Catenin (Uniprot ID P35222) (Homo sapiens (Human), UniProt P35222 1-781)
T4 construct: also called bCat; B-Catenin
T4 sequence: T1 sequence (looked up)

T5: B-cat-Halo (UniProt P35222 1-781)
T5 construct: Expressed by transfection in HEK293 cells for the NanoBRET assay; also called beta-catenin HaloTag NanoBRET construct; not shown: HaloTag
T5 sequence (looked up): T1 sequence (looked up)

T6: full-length beta-Catenin (Uniprot ID P35222) (Homo sapiens (Human), UniProt P35222 1-781)
T6 construct: also called bCat; B-Catenin
T6 sequence: T1 sequence (looked up)

B1: I-563 (peptide)
peptide: XDLXDDAAFNXFXQ
modifications: not fully specified; N-terminal Ac; C-terminal NH2; non-natural PL3 (1), B5 (4), S8 (11), BztA (13); stapled PL3-B5 and B5-S8 by olefin metathesis
notes: Stapled peptide composition; also called Ac-PL3-Asp-Leu-B5-Asp-Asp-Ala-Ala-Phe-Asn-S8-Phe-BztA-Gln-NH2
B2: I-567 (peptide)
peptide: XDVXDDAAFNXFXQ
modifications: not fully specified; N-terminal Ac; C-terminal NH2; non-natural PL3 (1), B5 (4), S8 (11), BztA (13); stapled PL3-B5 and B5-S8 by olefin metathesis
notes: Stapled peptide composition; also called Ac-PL3-Asp-Val-B5-Asp-Asp-Ala-Ala-Phe-Asn-S8-Phe-BztA-Gln-NH2
B3: I-566 (peptide)
peptide: XDVXDDAAFNXFXQ
modifications: not fully specified; N-terminal Ac; C-terminal NH2; non-natural PL3 (1), B5 (4), S8 (11), BztA (13); stapled PL3-B5 and B5-S8 by olefin metathesis
notes: as for B2
B4: I-564 (peptide)
peptide: Ac-[αAllylPro]DL[B5(5)]DDAAFN[S8]F[Bta]H-NH2
modifications: staple 1-4, 4-11
notes: Stapled peptide composition; also called Ac-PL3-Asp-Leu-B5-Asp-Asp-Ala-Ala-Phe-Asn-S8-Phe-BztA-His-NH2
B5: I-576 (peptide)
peptide: XDLXDEAAFNXFXQ
modifications: not fully specified; N-terminal Ac; C-terminal NH2; non-natural PL3 (1), B5 (4), S8 (11), BztA (13); stapled PL3-B5 and B5-S8 by olefin metathesis
notes: Stapled peptide composition; also called Ac-PL3-Asp-Leu-B5-Asp-Glu-Ala-Ala-Phe-Asn-S8-Phe-BztA-Gln-NH2
B6: I-577 (peptide)
peptide: Ac-[αAllylPro]DL[B5(21)]DEAAFN[S8]F[Bta]Q-NH2
modifications: staple 1-4, 4-11; not fully specified
notes: as for B5
B7: I-565 (peptide)
peptide: Ac-[αAllylPro]DL[B5(21)]DDAAFN[S8]F[Bta]H-NH2
modifications: staple 1-4, 4-11; not fully specified
notes: as for B4
B8: I-1295 (peptide)
peptide: Ac-[αAllylPro]DA[B5(10)]NTAAFL[PyrS2]F[Bta]Q-NH2
modifications: staple 1-4, 4-11; not fully specified; printed as Ac-PL3-Asp-Ala-B5-Asn-Thr-Ala-Ala-Phe-Leu-PyrS2-Phe-BztA-Gln-NH2
B9: I-1296 (peptide)
peptide: Ac-[αAllylPro]DA[B5(10)]NTAAFL[PyrS2]F[Bta]Q-NH2
modifications: staple 1-4, 4-11; not fully specified; printed as Ac-PL3-Asp-Ala-B5-Asn-Thr-Ala-Ala-Phe-Leu-PyrS2-Phe-BztA-Gln-NH2
B10: I-1287 (peptide)
peptide: Ac-[αAllylPro]NA[B5(10)]DTAAFL[PyrS2]F[Bta]Q-NH2
modifications: staple 1-4, 4-11; not fully specified; printed as Ac-PL3-Asn-Ala-B5-Asp-Thr-Ala-Ala-Phe-Leu-PyrS2-Phe-BztA-Gln-NH2
B11: I-1286 (peptide)
peptide: Ac-[αAllylPro]NA[B5(10)]DTAAFL[PyrS2]F[Bta]Q-NH2
modifications: staple 1-4, 4-11; not fully specified; printed as Ac-PL3-Asn-Ala-B5-Asp-Thr-Ala-Ala-Phe-Leu-PyrS2-Phe-BztA-Gln-NH2

The first experiment has as its target T1, beta-catenin in DLD1 TCF/LEF luciferase …. Nature of the experiment: cell-based or functional assay.
In the case of Ac-[αAllylPro]D[tBuAla][B5(18)]D[TfeGA]FAFN[PyrS2″][Phe(2-Cl)][Bta]Q-NH2 (staple 1-4, 4-11) [I-1008], the “DLD1 4% Abs IC50” value was found to be 4.7 µM.

A further experiment has as its target T2, B-cat-Halo. Nature of the experiment: cell-based or functional assay.
Regarding Ac-[αAllylPro]D[tBuAla][B5(3)]D[TfeGA]AAFF[PyrS2″][Phe(2-Cl)][Bta]S-NH2 (staple 1-4, 4-11) [I-990], the “NanoBRET Abs IC50” value amounted to 8.8 µM.
Ac-[αAllylPro]D[tBuAla][B5(3)]D[TfeGA]AAFF[PyrS2″]F[Bta]Q-NH2 (staple 1-4, 4-11) [I-988]: the “NanoBRET Abs IC50” value came out at 13.9 µM.

For the next experiment, the target named is T3, B-cat-Halo. Nature of the experiment: cell-based or functional assay.
Consider Ac-[αAllylPro]D[tBuAla][B5(18)]D[TfeGA]FAFN[PyrS2″][Phe(2-Cl)][Bta]Q-NH2 (staple 1-4, 4-11) [I-1008], for which the “NanoBRET Abs IC50” value was 14 µM.

Another experiment concerns the target T4, full-length beta-Catenin (Uniprot ID …). Nature of the experiment: competition fluorescence polarization; full-length beta-catenin, 5FAM-TCF4(10-53) probe as competitor. How it is done:
(§1) The plate was incubated protected from light for 60 minutes at 20° C. prior to read. Reads were performed on a CLARIOstar plate reader (BMG Labtech) in duplicate, and data were fitted to a 1:1 binding model with hill slope using an in-house script. All provided concentrations are final concentrations.
In the case of B1, the IC50 is 0.019 µM.
In the case of B2, the IC50 worked out at 0.037 µM.
The same measure, in the same setting: for B3 the value was 0.076 µM; for B4, 0.036 µM.

In the next experiment the target is T5, B-cat-Halo. Nature of the experiment: NanoBRET Abs IC50 in HEK293 cells; Bcat-Halo, TCF4-Luc as competitor. Background: In BRET a luciferase serves as donor, and the signal depends on an acceptor being close.
B1 had an IC50 of 15.7 µM.
Same read-out and setting: for B5 the value was 11.1 µM.
B6 returned an IC50 of 10.4 µM.
On the same count and under the same terms, to B4 belongs above 20 µM.
B7 displayed an IC50 of 26 µM.

For a further experiment, the target named is T6, full-length beta-Catenin (Uniprot ID …). Nature of the experiment: fluorescence polarization competition; full-length beta-catenin + 5FAM-TCF4(10-53) probe. As for the experimental part:
as §1
In the case of B8, the EC50 is 10 µM.
Still for that read-out and setting: for B9 the value was 3.79 µM; for B10, 10 µM; for B11, 10 µM.
